According to US6897054 (JAPAN SCIENCE AND TECHNOLOGY AGENCY, dated 2005):
One block for each binder: values may come before it.

Target: T1, huCdc7 fused to DNA-binding domain of Gal4 (human, UniProt P04386 1-147; O00311 1-574, limits assumed)
T1 construct: Yeast two-hybrid bait in strain CG1945; also called huCdc7 (two-hybrid bait)
Assay: yeast two-hybrid assay, lacZ activity
Description: In order to determine the region on H37 protein essential for binding with huCdc7, a series of deletion derivatives of H37 at N- and C-terminals as shown in FIG. 7 was prepared, each of them was expressed in yeast as a fusion protein with Gal4 activated domain and an interaction of each deletion derivative with huCdc7 was investigated by means of a two-hybrid assay. […] However, when 50 amino acids at N-terminal were further deleted whereupon the H37 motif C was deleted, an interaction with huCdc7 was completely lost (ΔN3).

interaction relative to the full-length clone: ~10%
B1: H37 deletion derivative ΔB fused to Gal4 activation domain (other, not shown: small tags and cut ends)
chain: MNSGAMRIHSKGHFQGGIQVKNEKNRPSLKSLKTDNRPEKSKCKPLWGKVFYLDLPSVTISEKLQKDIKDLGGRVEEFLSKDISYLISNKKEAKFAQTLGRISPVPSPESAYTAETTSPHPSHDGSSFKSPDTVCLSRGKLLVEKAIKDHDFIPSNSILSNALSWGVKILHIDDIRYYIEQKKKELYLLKKSSTSVRDGGKRVGSGAQKTRTGRLKKPFVKVEDMSQLYRPFYLQLTNMPFINYSIQKPCSPFDVDKPSSMQKQTQVKLRIQTDGDKYGGTSIQLQLKEKKKKGYCECCLQKYED
notes: The range is worked out from the printed count of deleted residues and a length of 674; also called deltaB

binding result: no binding
B2: H37 deletion derivative ΔP1 fused to Gal4 activation domain (other, not shown: small tags and cut ends)
chain: MNSGAMRIHSKGHFQGGIQVKNEKNRPSLKSLKTDNRPEKSKCKPLWGKVFYLDLPSVTISEKLQKDIKDLGGRVEEFLSKDISYLISNKKEAKFAQTLGRISPVPSPESAYTAETTSPHPSHDGSSFKSPDTVCLSRGKLLVEKAIKDHDFIPSNSILSNALSWGVKILHIDDIRYYIEQKKKELYLLKKSSTSVRDGGKRVGSGAQKTRTGRLKKPFVKVEDMSQLYRPFYLQ

binding result: no binding
B3: H37 deletion derivative ΔN3 fused to Gal4 activation domain (other, not shown: small tags and cut ends)
chain: LETHLLSEQHRNFAQSNQYQVVDDIVSKLVFDFVEYEKDTPKKKRIKYSVGSLSPVSASVLKKTEQKEKVELQHISQKDCQEDDTTVKEQNFLYKETQETEKKLLFISEPIPHPSNELRGLNEKMSNKCSMLSTAEDDIRQNFTQLPLHKNKQECILDISEHTLSENDLEELRVDHYKCNIQASVHVSDFSTDNSGSQPKQKSDTVLFPAKDLKEKDLHSIFTHDSGLITINSSQEHLTVQAKAPFHTPPEEPNECDFKNMDSLPSGKIHRKVKIILGRNRKENLEPNAEFDKRTEFITQEENRICSSPVQSLLDLFQTSEEKSEFLGFTSYTEKSGICNVLDIWEEENSDNLLTAFFSSPSTSTFTGF
notes: The range is worked out from the printed counts of deleted residues and a length of 674
